Experiments:
[1] = target: Ixodes ricinus cathepsin B, native in gut tissue extract (Ixodes ricinus (endogenous in gut tissue))
[2] = target: Ixodes ricinus cathepsin L3 (Ixodes ricinus)
[3] = target: T1, human cathepsin K (human) (UniProt P43235)
T1 sequence: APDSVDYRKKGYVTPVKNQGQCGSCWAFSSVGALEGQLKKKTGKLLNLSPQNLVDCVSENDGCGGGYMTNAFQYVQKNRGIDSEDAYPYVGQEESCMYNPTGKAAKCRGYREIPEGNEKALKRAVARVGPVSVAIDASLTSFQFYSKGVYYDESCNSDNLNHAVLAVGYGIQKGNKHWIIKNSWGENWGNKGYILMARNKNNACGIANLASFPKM

[4] = target: cathepsins L and B activity of I. ricinus gut tissue extract (Ixodes ricinus (endogenous in gut tissue))
[5] = target: human cathepsin B (human)
[6] = target: Ixodes ricinus cathepsin L1 (Ixodes ricinus)
[7] = target: Ixodes ricinus cathepsin C, native in gut tissue extract (Ixodes ricinus (endogenous in gut tissue))
[8] = target: human cathepsin C (human)
Sequence of human cathepsin C (human) (P53634 25-463): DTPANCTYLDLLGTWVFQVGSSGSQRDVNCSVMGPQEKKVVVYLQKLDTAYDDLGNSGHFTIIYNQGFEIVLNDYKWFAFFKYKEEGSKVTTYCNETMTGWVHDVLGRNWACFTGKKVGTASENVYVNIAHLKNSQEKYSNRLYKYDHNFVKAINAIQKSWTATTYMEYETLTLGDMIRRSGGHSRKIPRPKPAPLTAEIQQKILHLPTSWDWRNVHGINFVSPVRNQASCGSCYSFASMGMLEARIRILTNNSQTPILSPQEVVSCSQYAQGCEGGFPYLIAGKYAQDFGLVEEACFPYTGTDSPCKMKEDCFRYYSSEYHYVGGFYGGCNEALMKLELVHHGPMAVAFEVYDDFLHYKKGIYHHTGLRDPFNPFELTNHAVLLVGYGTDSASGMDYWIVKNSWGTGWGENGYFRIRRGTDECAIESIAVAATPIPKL

[9] = target: T2, human cathepsin H (human)
T2 sequence (P09668 116-335, looked up): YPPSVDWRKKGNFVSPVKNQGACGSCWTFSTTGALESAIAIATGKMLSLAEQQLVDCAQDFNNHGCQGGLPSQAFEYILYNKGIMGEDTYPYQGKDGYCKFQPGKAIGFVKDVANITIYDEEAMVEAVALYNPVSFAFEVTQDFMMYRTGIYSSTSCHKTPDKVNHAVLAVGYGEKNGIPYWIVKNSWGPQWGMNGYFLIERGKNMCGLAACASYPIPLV

[10] = target: human cathepsin L (human)
Sequence of human cathepsin L (human) (P07711 18-333): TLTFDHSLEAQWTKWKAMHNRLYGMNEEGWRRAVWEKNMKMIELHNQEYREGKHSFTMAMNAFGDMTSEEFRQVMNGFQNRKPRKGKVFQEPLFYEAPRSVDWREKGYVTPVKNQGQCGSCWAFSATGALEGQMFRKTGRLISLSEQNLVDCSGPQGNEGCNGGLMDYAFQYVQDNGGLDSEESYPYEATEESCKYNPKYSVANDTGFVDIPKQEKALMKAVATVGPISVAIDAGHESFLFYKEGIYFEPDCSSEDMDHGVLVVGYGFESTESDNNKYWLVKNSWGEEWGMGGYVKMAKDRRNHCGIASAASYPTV

[11] = target: human cathepsin S (human) (UniProt P25774)
Sequence of human cathepsin S (human) (P25774 115-331): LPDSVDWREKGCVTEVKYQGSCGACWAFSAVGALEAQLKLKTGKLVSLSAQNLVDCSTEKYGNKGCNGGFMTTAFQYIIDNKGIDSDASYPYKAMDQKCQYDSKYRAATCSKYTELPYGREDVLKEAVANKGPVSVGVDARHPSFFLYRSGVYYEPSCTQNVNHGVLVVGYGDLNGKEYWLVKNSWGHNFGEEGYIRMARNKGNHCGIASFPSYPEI

[12] = target: cathepsin L-like activity of I. ricinus gut tissue extract (Ixodes ricinus (endogenous in gut tissue))

B1: mialostatin (natural protein)
chain: GSASRSKRALVGGWKTQDPTNPKFENLAHYAVSTQVEGREYYDTVLELLEVQTQIVAGVNYKLKFTTTQSTCKIETGVEYSKELCQPKTNKVEAVCTSIIYTVPWQNIKRVLSYHCDAPNDV
Q: B1 was tested. Which IC50 of inhibition of cathepsin B activity in gut tissue extract (kinetic assay, Z-Arg-Arg-AMC, pH 6.5, with Z-Phe-Phe-DMK, 37 °C) [1] did it give?
A: 12.1 nM

Q: And the IC50 of inhibition of protease activity (kinetic assay, 20 pM IrCL3, Z-Phe-Arg-AMC, pH 4.5, 37 °C) [2]?
A: 0.39 nM

Q: What about the IC50 of inhibition of protease activity (kinetic assay, 5 nM cathepsin K, Z-Leu-Arg-AMC, pH 5.5, 37 °C) [3] of the same binder?
A: 9.7 nM

Q: What about the IC50 of inhibition of cathepsins L and B activity in gut tissue extract (kinetic assay, Z-Phe-Arg-AMC, pH 5.0, 37 °C) [4] of the same binder?
A: 3.1 nM

Q: And the IC50 of inhibition of protease activity (kinetic assay, 35 pM cathepsin B, Z-Leu-Arg-AMC, pH 5.5, 37 °C) [5]?
A: 9 nM

Q: What about the IC50 of inhibition of protease activity (kinetic assay, 0.1 nM IrCL1, Z-Phe-Arg-AMC, pH 4.5, 37 °C) [6] of the same binder?
A: 71 pM

Q: What about the IC50 of inhibition of cathepsin C activity in gut tissue extract (kinetic assay, Gly-Arg-AMC, pH 5.5, with E-64, 37 °C) [7] of the same binder?
A: 91.7 nM

Q: And the IC50 of inhibition of protease activity (kinetic assay, 0.5 nM cathepsin C, Gly-Arg-AMC, pH 5.5, 37 °C) [8]?
A: 2.1 nM

Q: And the IC50 of inhibition of protease activity (kinetic assay, 20 nM cathepsin H, Z-Leu-Arg-AMC, pH 6.8, 37 °C) [9]?
A: 24 nM

Q: What about the IC50 of inhibition of protease activity (kinetic assay, 33 pM cathepsin L, Z-Leu-Arg-AMC, pH 5.5, 37 °C) [10] of the same binder?
A: 0.38 nM

Q: And the IC50 of inhibition of protease activity (kinetic assay, 350 pM cathepsin S, Z-Val-Val-Arg-AMC, pH 5.5, 37 °C) [11]?
A: 2.2 nM

Q: What about the IC50 of inhibition of cathepsin L activity in gut tissue extract (kinetic assay, Z-Phe-Arg-AMC, pH 4.5, with CA-074, 37 °C) [12] of the same binder?
A: 0.18 nM
